Data taken from US20230390418A1, “[…] XII ANTIBODIES AND ADMINISTRATION THEREOF” (REGENXBIO INC., priority 2020, published 2023).

Experiments:
[1] = molecular target: activated human plasma kallikrein (Enzyme Research Laboratories) (human) (UniProt P03952); assay: cell-based or functional assay
[2] = system: carrageenan-induced paw edema; assay: Carrageenan paw edema model in mice (paw volume, plethysmometer); assay type: in vivo; conditions: C57BL/6 mice, vectors 21 days, Diclofenac 30 minutes prior to carrageenan
Excerpt: Inflammation models induced by carrageenan are frequently used acute inflammation models. Carrageenan (Cg) is a strong chemical agent that functions in stimulating the release of inflammatory and proinflammatory mediators, including bradykinin, histamine, tachykinins, reactive oxygen, and nitrogen species. Typical signs of inflammation include edema, hyperalgesia, and erythema, which develop immediately following the treatment of carrageenan. This example evaluated the effect of AAV-mediated gene delivery of Lanadelumab on carrageenan-induced paw edema in mice.
In total eighty young adult (8-9 weeks old) male C57BL/6 mice were used for this study. Paw edema was induced by a single subcutaneous (s.c.) injection of 30 μL of 0.7% or 1% carrageenan solution. Test vectors and positive control Diclofenac were administered at 21 days and 30 minutes prior to carrageenan treatment. Blood was collected before vectors injection and at 7 and 21 days post injection from mice in groups 1, 3, 4, 5, 7 and 8. Paw volume was measured using a digital Plethysmometer prior to carrageenan injection, and at 2, 4, 6, 8, 24 and 48 hours after injection. All animals were sacrificed 48 hours after carrageenan injection. Liver and paw specimens were also collected at the necropsy.

[3] = molecular target: T1, activated human plasma kallikrein (Homo sapiens, UniProt P03952); assay: In vitro pKal functional assay (fluorogenic PFR-AMC substrate); assay type: biochemical
T1 construct: purchased Enzyme Research Laboratories
Experimental: In order to measure pKal function of lanadelumab derived from mouse serum following AAV-lanadelumab administration, a fluorescence-based kinetic enzymatic functional assay was performed. First, activated human plasma kallikrein (Enzyme Research Laboratories) was diluted in sample dilution buffer (SDB; 1×PBS, 3% BSA, 0.1% Tween-20) to top concentration of 100 nM. This pKal was two-fold serially diluted for a total of 12 concentrations in the dilution series (100 nM-0.05 nM). From each dilution, and in duplicate, […], was placed in one well of a 96-well, opaque flat-bottomed plate along with […], of SDB. […] The samples were immediately run in kinetic mode for AMC fluorescence at excitation/emission wavelengths of 380/460 nm, respectively, for 3 hours using a SpectraMax 3 fluorescent plate reader.
The signal-to-noise ratio for each pKal concentration RFU (last RFU fluorescent value chosen) was calculated by dividing its RFU by background PFR-AMC substrate fluorescence. […] Antibody-pKal mixture was then given PFR-AMC and immediately run in kinetic mode for AMC fluorescence at excitation/emission wavelengths of 380/460 nm, respectively, for 3 hours using a SpectraMax fluorescent plate reader.
In vitro pKal functional assay. […] Total antibody concentration was measured using a Nanodrop spectrophotometer, with OD absorbance=280 nm. […]

T1 sequence (P03952 391-638 limits assumed): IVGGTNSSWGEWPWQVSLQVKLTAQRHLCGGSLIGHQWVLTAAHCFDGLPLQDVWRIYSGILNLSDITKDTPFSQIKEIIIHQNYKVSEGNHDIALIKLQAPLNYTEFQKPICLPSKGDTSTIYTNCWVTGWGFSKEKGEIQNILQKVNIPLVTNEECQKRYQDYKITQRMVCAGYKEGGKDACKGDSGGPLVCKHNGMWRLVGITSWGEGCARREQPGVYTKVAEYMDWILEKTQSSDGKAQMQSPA
T1 sequence (P03952 20-390 limits assumed): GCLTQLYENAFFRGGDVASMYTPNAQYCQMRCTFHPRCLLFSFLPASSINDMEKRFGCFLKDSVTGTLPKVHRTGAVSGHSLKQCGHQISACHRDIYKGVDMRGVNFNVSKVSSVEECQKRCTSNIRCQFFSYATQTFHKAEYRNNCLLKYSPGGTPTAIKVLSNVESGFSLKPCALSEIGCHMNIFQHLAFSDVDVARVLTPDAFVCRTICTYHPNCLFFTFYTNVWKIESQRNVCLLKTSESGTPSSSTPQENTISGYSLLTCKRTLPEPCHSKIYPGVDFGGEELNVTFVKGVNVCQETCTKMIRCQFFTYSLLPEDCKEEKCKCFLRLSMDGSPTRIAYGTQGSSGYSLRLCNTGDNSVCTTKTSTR

Lanadelumab (GenScript) (antibody) was tested, and the suppression of pKal activity (PFR-AMC fluorogenic substrate, kinetic AMC fluorescence) [1] was 0.1 nM.

`O=C(O)Cc1ccccc1Nc1c(Cl)cccc1Cl` [diclofenac, Diclofenac] was tested, and the “Paw volume versus vehicle control” value ([2]; 0.7% carrageenan model) was “a significant decrease on paw volume was observed only at 4 and 24 hours post injection” and the “Paw volume versus vehicle control” value ([2]; 1.0% carrageenan model) was “significantly decreased the paw volume at 2, 4, 6, 8 and 24 hours post carrageenan injection”.

In the case of “Vectorized lanadelumab derived from mouse serum following AAV-lanadelumab administration (antibody)”, the percent reduction in pKal activity (serum diluted 1:25, day 49 post-administration against day -7; PFR-AMC assay) [1] is reported as 50%.

B1: lanadelumab: human anti-pKal (anti-kallikrein) IgG antibody; purified (GenScript) or produced in serum via AAV-mediated gene delivery (antibody)
heavy: EVQLLESGGGLVQPGGSLRLSCAASGFTFSHYIMMWVRQAPGKGLEWVSGIYSSGGITVYADSVKGRFTISRDNSKNTLYLQMNSLRAEDTAVYYCAYRRIGVPRRDEFDIWGQGTMVTVSSASTKGPSVFPLAPSSKSTSGGTAALGCLVKDYFPEPVTVSWNSGALTSGVHTFPAVLQSSGLYSLSSVVTVPSSSLGTQTYICNVNHKPSNTKVDKRVEPKSCDKTHTCPPCPAPELLGGPSVFL
light: DIQMTQSPSTLSASVGDRVTITCRASQSISSWLAWYQQKPGKAPKLLIYKASTLESGVPSRFSGSGSGTEFTLTISSLQPDDFATYYCQQYNTYWTFGQGTKVEIKRTVAAPSVFIFPPSDEQLKSGTASVVCLLNNFYPREAKVQWKVDNALQSGNSQESVTEQDSKDSTYSLSSTLTLSKADYEKHKVYACEVTHQGLSSPVTKSFNRGEC
modifications: Lanadelumab Heavy; misc (227)..(230) amino acids 227 to 230 are present or absent; misc (231)..(236) amino acids 231 to 236 are present or absent; misc (237)..(247) amino acids 237 to 247 are present or absent; Lanadelumab Light
notes: human anti-pKal (anti-kallikrein) IgG antibody; purified (GenScript) or produced in serum via AAV-mediated gene delivery
For B1, the “Paw volume versus vehicle control” value ([2]; 1.0% carrageenan model) was “significantly reduces the severity of inflammation”, the “Suppression of human pKal function by purified total IgG from mouse serum” value ([3]; IgG purified from day 49 post-administration serum versus day −7) was “suppressed human pKal function” and the “Lowest in-well concentration with noticeable suppression of pKal activity” value ([3]; purified antibody, defined enzyme concentration) was 0.1 nM.
